Data on 1 substance can be found in article PMC12548415.

Broadly, the Kd is a measure of binding affinity in units of concentration. The low end stands for tighter binding, the high end for weaker binding. As usually defined, the koff is the first-order rate constant of dissociation. What is called kon is the rate constant with which the complex forms. A high value points to fast association.

Common to all, as to test: BLI; virus immobilised on APS probe (Gator Prime), PBS as running buffer; three concentrations (serial dilutions) of RDTfR in PBST (PBS, 0.05% Tween-20) applied; global fit, 1:1 binding model
Test [1] deals with wild-type raccoon dog parvovirus strain RDPV/FLD/2010, capsid of VP2 (raccoon dog parvovirus, strain RDPV/FLD/2010).
The target of test [2] is rRDPV-16 virus (rescued from the infectious cDNA clone pRDPV-16 of raccoon dog parvovirus strain RDPV/CL/2016), capsid of VP2 (raccoon dog parvovirus, strain RDPV/CL/2016).
Test [3] addresses wild-type raccoon dog parvovirus strain RDPV/CL/2016, capsid of VP2 (raccoon dog parvovirus, strain RDPV/CL/2016).

For the substance “raccoon dog transferrin receptor ectodomain (recombinant RDTfR, from residue 121, C-terminal 6x His)”, in test [1], the Kd stood at 103 nM. For the same substance, in test [2], the Kd turned out to be 56.1 nM, the dissociation rate constant (koff) is 0.00306 s⁻¹ and the on-rate constant (kon) amounted to 54500 M⁻¹ s⁻¹. For the same substance, in test [3], the Kd worked out at 81.1 nM.
